Laboratory results reported in patent US20160272683A1 (Novo Nordisk, published 2016).
Numbered stars: 1 amine (or outer) side, 2 acyl side, 3 side chain; on linkers, the order of the positions; unused ones are H or OH. Ends that are not written are not given here. * marks the point of attachment. C20 diacid = O=C(O)CCCCCCCCCCCCCCCCCCC(=O)*; γGlu = O=C(O)[C@H](CCC(=O)[*:2])N[*:1]

T1: human calcitonin receptor (human, UniProt P30988 25-474)
T1 construct: whole, on cells; also called hCT-R; hCTR
T1 sequence (looked up): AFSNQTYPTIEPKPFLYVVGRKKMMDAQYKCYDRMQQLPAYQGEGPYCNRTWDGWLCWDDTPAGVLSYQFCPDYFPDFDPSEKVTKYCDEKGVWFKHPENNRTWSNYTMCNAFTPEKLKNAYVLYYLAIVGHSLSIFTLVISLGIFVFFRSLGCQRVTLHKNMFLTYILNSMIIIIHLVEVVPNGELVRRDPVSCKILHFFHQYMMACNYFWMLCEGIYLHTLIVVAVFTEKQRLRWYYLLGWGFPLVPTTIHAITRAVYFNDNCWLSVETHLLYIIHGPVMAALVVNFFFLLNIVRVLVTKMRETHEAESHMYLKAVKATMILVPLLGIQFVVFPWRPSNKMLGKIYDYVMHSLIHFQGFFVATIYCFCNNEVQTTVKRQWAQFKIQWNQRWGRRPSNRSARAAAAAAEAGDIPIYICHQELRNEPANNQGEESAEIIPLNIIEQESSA

B1: [N-terminal(C20 diacid-gGlu), des1, 30S, 31G, 33A]mimylin (peptide)
peptide: {C20 diacid-γGlu}-ASELSTAALGRLSAELHELATLPRTETGSGSA-NH2
SMILES: CC(C)C[C@H](NC(=O)[C@H](C)NC(=O)[C@H](C)NC(=O)[C@@H](NC(=O)[C@H](CO)NC(=O)[C@H](CC(C)C)NC(=O)[C@H](CCC(=O)O)NC(=O)[C@H](CO)NC(=O)[C@H](C)NC(=O)CC[C@H](NC(=O)CCCCCCCCCCCCCCCCCCC(=O)O)C(=O)O)[C@@H](C)O)C(=O)NCC(=O)N[C@@H](CCCNC(=N)N)C(=O)N[C@@H](CC(C)C)C(=O)N[C@@H](CO)C(=O)N[C@@H](C)C(=O)N[C@@H](CCC(=O)O)C(=O)N[C@@H](CC(C)C)C(=O)N[C@@H](Cc1c[nH]cn1)C(=O)N[C@@H](CCC(=O)O)C(=O)N[C@@H](CC(C)C)C(=O)N[C@@H](C)C(=O)N[C@H](C(=O)N[C@@H](CC(C)C)C(=O)N1CCC[C@H]1C(=O)N[C@@H](CCCNC(=N)N)C(=O)N[C@H](C(=O)N[C@@H](CCC(=O)O)C(=O)N[C@H](C(=O)NCC(=O)N[C@@H](CO)C(=O)NCC(=O)N[C@@H](CO)C(=O)N[C@@H](C)C(N)=O)[C@@H](C)O)[C@@H](C)O)[C@@H](C)O
notes: also called Ex. #65
B2: [N-terminal(C20 diacid-gGlu), des1, 30S, 31G, 33F]mimylin (peptide)
peptide: {C20 diacid-γGlu}-ASELSTAALGRLSAELHELATLPRTETGSGSF-NH2
SMILES: CC(C)C[C@H](NC(=O)[C@H](C)NC(=O)[C@H](C)NC(=O)[C@@H](NC(=O)[C@H](CO)NC(=O)[C@H](CC(C)C)NC(=O)[C@H](CCC(=O)O)NC(=O)[C@H](CO)NC(=O)[C@H](C)NC(=O)CC[C@H](NC(=O)CCCCCCCCCCCCCCCCCCC(=O)O)C(=O)O)[C@@H](C)O)C(=O)NCC(=O)N[C@@H](CCCNC(=N)N)C(=O)N[C@@H](CC(C)C)C(=O)N[C@@H](CO)C(=O)N[C@@H](C)C(=O)N[C@@H](CCC(=O)O)C(=O)N[C@@H](CC(C)C)C(=O)N[C@@H](Cc1c[nH]cn1)C(=O)N[C@@H](CCC(=O)O)C(=O)N[C@@H](CC(C)C)C(=O)N[C@@H](C)C(=O)N[C@H](C(=O)N[C@@H](CC(C)C)C(=O)N1CCC[C@H]1C(=O)N[C@@H](CCCNC(=N)N)C(=O)N[C@H](C(=O)N[C@@H](CCC(=O)O)C(=O)N[C@H](C(=O)NCC(=O)N[C@@H](CO)C(=O)NCC(=O)N[C@@H](CO)C(=O)N[C@@H](Cc1ccccc1)C(N)=O)[C@@H](C)O)[C@@H](C)O)[C@@H](C)O
notes: also called Ex. #61
B3: [N-terminal(C20 diacid-gGlu), des1, 30S, 31G, 33G]mimylin (peptide)
peptide: {C20 diacid-γGlu}-ASELSTAALGRLSAELHELATLPRTETGSGSG-NH2
SMILES: CC(C)C[C@H](NC(=O)[C@H](C)NC(=O)[C@H](C)NC(=O)[C@@H](NC(=O)[C@H](CO)NC(=O)[C@H](CC(C)C)NC(=O)[C@H](CCC(=O)O)NC(=O)[C@H](CO)NC(=O)[C@H](C)NC(=O)CC[C@H](NC(=O)CCCCCCCCCCCCCCCCCCC(=O)O)C(=O)O)[C@@H](C)O)C(=O)NCC(=O)N[C@@H](CCCNC(=N)N)C(=O)N[C@@H](CC(C)C)C(=O)N[C@@H](CO)C(=O)N[C@@H](C)C(=O)N[C@@H](CCC(=O)O)C(=O)N[C@@H](CC(C)C)C(=O)N[C@@H](Cc1c[nH]cn1)C(=O)N[C@@H](CCC(=O)O)C(=O)N[C@@H](CC(C)C)C(=O)N[C@@H](C)C(=O)N[C@H](C(=O)N[C@@H](CC(C)C)C(=O)N1CCC[C@H]1C(=O)N[C@@H](CCCNC(=N)N)C(=O)N[C@H](C(=O)N[C@@H](CCC(=O)O)C(=O)N[C@H](C(=O)NCC(=O)N[C@@H](CO)C(=O)NCC(=O)N[C@@H](CO)C(=O)NCC(N)=O)[C@@H](C)O)[C@@H](C)O)[C@@H](C)O
notes: also called Ex. #64
B4: [N-terminal(C20 diacid-gGlu), des1, 30S, 31G, 33H]mimylin (peptide)
peptide: {C20 diacid-γGlu}-ASELSTAALGRLSAELHELATLPRTETGSGSH-NH2
SMILES: CC(C)C[C@H](NC(=O)[C@H](C)NC(=O)[C@H](C)NC(=O)[C@@H](NC(=O)[C@H](CO)NC(=O)[C@H](CC(C)C)NC(=O)[C@H](CCC(=O)O)NC(=O)[C@H](CO)NC(=O)[C@H](C)NC(=O)CC[C@H](NC(=O)CCCCCCCCCCCCCCCCCCC(=O)O)C(=O)O)[C@@H](C)O)C(=O)NCC(=O)N[C@@H](CCCNC(=N)N)C(=O)N[C@@H](CC(C)C)C(=O)N[C@@H](CO)C(=O)N[C@@H](C)C(=O)N[C@@H](CCC(=O)O)C(=O)N[C@@H](CC(C)C)C(=O)N[C@@H](Cc1c[nH]cn1)C(=O)N[C@@H](CCC(=O)O)C(=O)N[C@@H](CC(C)C)C(=O)N[C@@H](C)C(=O)N[C@H](C(=O)N[C@@H](CC(C)C)C(=O)N1CCC[C@H]1C(=O)N[C@@H](CCCNC(=N)N)C(=O)N[C@H](C(=O)N[C@@H](CCC(=O)O)C(=O)N[C@H](C(=O)NCC(=O)N[C@@H](CO)C(=O)NCC(=O)N[C@@H](CO)C(=O)N[C@@H](Cc1c[nH]cn1)C(N)=O)[C@@H](C)O)[C@@H](C)O)[C@@H](C)O
notes: also called Ex. #60
B5: [N-terminal(C20 diacid-gGlu), des1, 30S, 31G, 33L]mimylin (peptide)
peptide: {C20 diacid-γGlu}-ASELSTAALGRLSAELHELATLPRTETGSGSL-NH2
SMILES: CC(C)C[C@H](NC(=O)[C@H](CO)NC(=O)CNC(=O)[C@H](CO)NC(=O)CNC(=O)[C@@H](NC(=O)[C@H](CCC(=O)O)NC(=O)[C@@H](NC(=O)[C@H](CCCNC(=N)N)NC(=O)[C@@H]1CCCN1C(=O)[C@H](CC(C)C)NC(=O)[C@@H](NC(=O)[C@H](C)NC(=O)[C@H](CC(C)C)NC(=O)[C@H](CCC(=O)O)NC(=O)[C@H](Cc1c[nH]cn1)NC(=O)[C@H](CC(C)C)NC(=O)[C@H](CCC(=O)O)NC(=O)[C@H](C)NC(=O)[C@H](CO)NC(=O)[C@H](CC(C)C)NC(=O)[C@H](CCCNC(=N)N)NC(=O)CNC(=O)[C@H](CC(C)C)NC(=O)[C@H](C)NC(=O)[C@H](C)NC(=O)[C@@H](NC(=O)[C@H](CO)NC(=O)[C@H](CC(C)C)NC(=O)[C@H](CCC(=O)O)NC(=O)[C@H](CO)NC(=O)[C@H](C)NC(=O)CC[C@H](NC(=O)CCCCCCCCCCCCCCCCCCC(=O)O)C(=O)O)[C@@H](C)O)[C@@H](C)O)[C@@H](C)O)[C@@H](C)O)C(N)=O
notes: also called Ex. #62
B6: [N-terminal(C20 diacid-gGlu), des1, 30S, 31G, 33S]mimylin (peptide)
peptide: {C20 diacid-γGlu}-ASELSTAALGRLSAELHELATLPRTETGSGSS-NH2
SMILES: CC(C)C[C@H](NC(=O)[C@H](C)NC(=O)[C@H](C)NC(=O)[C@@H](NC(=O)[C@H](CO)NC(=O)[C@H](CC(C)C)NC(=O)[C@H](CCC(=O)O)NC(=O)[C@H](CO)NC(=O)[C@H](C)NC(=O)CC[C@H](NC(=O)CCCCCCCCCCCCCCCCCCC(=O)O)C(=O)O)[C@@H](C)O)C(=O)NCC(=O)N[C@@H](CCCNC(=N)N)C(=O)N[C@@H](CC(C)C)C(=O)N[C@@H](CO)C(=O)N[C@@H](C)C(=O)N[C@@H](CCC(=O)O)C(=O)N[C@@H](CC(C)C)C(=O)N[C@@H](Cc1c[nH]cn1)C(=O)N[C@@H](CCC(=O)O)C(=O)N[C@@H](CC(C)C)C(=O)N[C@@H](C)C(=O)N[C@H](C(=O)N[C@@H](CC(C)C)C(=O)N1CCC[C@H]1C(=O)N[C@@H](CCCNC(=N)N)C(=O)N[C@H](C(=O)N[C@@H](CCC(=O)O)C(=O)N[C@H](C(=O)NCC(=O)N[C@@H](CO)C(=O)NCC(=O)N[C@@H](CO)C(=O)N[C@@H](CO)C(N)=O)[C@@H](C)O)[C@@H](C)O)[C@@H](C)O
notes: also called Ex. #63
B7: [N-terminal(C20 diacid-gGlu), des1, 30T, 31G, 32T]mimylin (peptide)
peptide: {C20 diacid-γGlu}-ASELSTAALGRLSAELHELATLPRTETGTGTP-NH2
SMILES: CC(C)C[C@H](NC(=O)[C@H](C)NC(=O)[C@H](C)NC(=O)[C@@H](NC(=O)[C@H](CO)NC(=O)[C@H](CC(C)C)NC(=O)[C@H](CCC(=O)O)NC(=O)[C@H](CO)NC(=O)[C@H](C)NC(=O)CC[C@H](NC(=O)CCCCCCCCCCCCCCCCCCC(=O)O)C(=O)O)[C@@H](C)O)C(=O)NCC(=O)N[C@@H](CCCNC(=N)N)C(=O)N[C@@H](CC(C)C)C(=O)N[C@@H](CO)C(=O)N[C@@H](C)C(=O)N[C@@H](CCC(=O)O)C(=O)N[C@@H](CC(C)C)C(=O)N[C@@H](Cc1c[nH]cn1)C(=O)N[C@@H](CCC(=O)O)C(=O)N[C@@H](CC(C)C)C(=O)N[C@@H](C)C(=O)N[C@H](C(=O)N[C@@H](CC(C)C)C(=O)N1CCC[C@H]1C(=O)N[C@@H](CCCNC(=N)N)C(=O)N[C@H](C(=O)N[C@@H](CCC(=O)O)C(=O)N[C@H](C(=O)NCC(=O)N[C@H](C(=O)NCC(=O)N[C@H](C(=O)N1CCC[C@H]1C(N)=O)[C@@H](C)O)[C@@H](C)O)[C@@H](C)O)[C@@H](C)O)[C@@H](C)O
notes: also called Ex. #74
B8: [des1, 5V, 9V, 30S, 31G]mimylin (peptide)
peptide: ASEVSTAVLGRLSAELHELATLPRTETGSGSP-NH2
notes: backbone without side chain; also called Ex. #86bb; 86bb
B9: [des1, 6T, 9V, 30T, 31G, 32T]mimylin (peptide)
peptide: ASELTTAVLGRLSAELHELATLPRTETGTGTP-NH2
notes: backbone without side chain; also called Ex. #95bb; 95bb
B10: [des1, 12H, 30S, 31G]mimylin (peptide)
peptide: ASELSTAALGHLSAELHELATLPRTETGSGSP-NH2
notes: backbone without side chain; also called Ex. #72bb; 72bb

biological target: T1, human calcitonin receptor; test: whole-cell competition vs 125I-human calcitonin (Assay VIIa)
Summary of the method: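 BHK tk'ts 13 cells stably co-expressing human calcitonin receptor and a CRE-luciferase reporter, seeded overnight at 37 °C. Bound tracer counted by scintillation after cold HBSS washes and NaOH/SDS lysis; IC₅₀ from one-site competition fit taken as receptor affinity.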

Point of comparison: B1, IC50 1.25 nM. Against it:
- B2 — within 1.5-fold, 1.76 nM
- B3 — 2.9-fold higher, 3.63 nM
- B4 — within 1.5-fold, 1.53 nM
- B5 — 1.9-fold higher, 2.33 nM
- B6 — 2.1-fold higher, 2.6 nM
- B7 — within 1.5-fold, 1.08 nM
- B8 — 2.4-fold lower, 0.52 nM
- ASELTTAVLGRLEAELHELTTLPRTETGTGTP-NH2 (backbone without side chain) [[des1, 6T, 9V, 14E, 21T, 30T, 31G, 32T]mimylin] — 50-fold higher, 62.9 nM
- B9 — 12-fold higher, 15.3 nM
- B10 — 3.6-fold higher, 4.53 nM
